Results as given in PMC11203631.

Legend:
[1] = biological target: vault-Z nanoparticle (assembly of major vault protein carrying a C-terminal Z peptide) (human | staphylococcal (protein A-derived)); assay: co-sedimentation; 8 nM vault-Z (624 nM MVP-Z) or authentic vault incubated 1 h with 40 to 320 nM Tz in 12 mM sodium phosphate pH 7.2, 0.14 M NaCl, 2.7 mM KCl; pelleted at 100,000 x g, 2 h, 4 °C; pellets quantified by SDS-PAGE densitometry and LC/MS; apparent KD from a quadratic binding equation
Trastuzumab [2] = assay: SPR; Biacore X100; Tz amine-coupled to a CM3 chip at 1220 RU; authentic vault, vault-Z or peptide Z injected 3 min at 30 uL/min, 25 °C, in 10 mM HEPES pH 7.4, 0.15 M NaCl, 3 mM EDTA, 0.05% Surfactant P20; Langmuir 1:1 kinetic fit
Trastuzumab [3] = assay: SPR; same sensorgrams of Z peptide on immobilised Tz, fitted with the affinity model (Req against Z peptide concentration)

Substance	Tz bound per vault-Z at 160 nM Tz (Tz per vault-Z) [1]	stoichiometry N (Tz per vault-Z) [1]	Kd (Trastuzumab [2]) [nM]	koff (Trastuzumab [2]) [s⁻¹]	kon (Trastuzumab [2]) [M⁻¹ s⁻¹]	Kd (Trastuzumab [3]) [nM]
Trastuzumab (antibody)	14	> 10	–	–	–	–
Z peptide in isolation	–	–	38.3	0.0171	446000	56
vault-Z nanoparticle (assembly of major vault protein carrying a C-terminal Z peptide) (complex)	–	–	2.53	0.000259	105000	–
